Patent US20260176336A1 (MESTAG THERAPEUTICS, published 2026)

How the values were obtained:
[1] = target: T1, human LTBR endogenously expressed on cells (HepG2, A549, A375, HCC1187, RPMI-7951, primary human breast CAFs) (human, UniProt P36941 31-435); experiment: cell-based or functional assay
[2] = target: T1, human LTBR endogenously expressed on …; experiment: cell-based or functional assay; remark: listed apart in the source
[3] = target: T1, human LTBR endogenously expressed on …; experiment: cell-based or functional assay; remark: listed apart in the source
[4] = target: T1, human LTBR endogenously expressed on …; experiment: cell-based or functional assay; remark: listed apart in the source
[5] = target: T1, human LTBR endogenously expressed on …; experiment: cell-based or functional assay; remark: listed apart in the source
[6] = target: T1, human LTBR endogenously expressed on …; experiment: flow cytometry, A375 cells
[7] = target: T2, human FAP expressed on cells (transfected HEK293; FAP-CHO-K1 recombinant cell line, BPS cat no. 79947) (human, UniProt Q12884 1-760); experiment: flow cytometry, HEK293-FAP overexpressing cells
T2 construct: also called HuFAP-HEK293; Hek-FAP

[8] = target: Human LTBR (Acro), recombinant protein (human, UniProt P36941 31-227, limits assumed); experiment: SPR (Carterra LSA) as in Example 2.6, antibody captured, LTBR as analyte
Chain of Human LTBR (Acro), recombinant protein (P36941 31-227 limits assumed): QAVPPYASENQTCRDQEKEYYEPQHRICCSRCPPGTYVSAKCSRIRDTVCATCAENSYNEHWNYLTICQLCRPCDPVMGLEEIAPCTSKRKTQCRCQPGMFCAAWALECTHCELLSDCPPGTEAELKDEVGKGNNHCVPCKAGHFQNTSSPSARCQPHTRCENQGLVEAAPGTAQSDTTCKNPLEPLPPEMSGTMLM
Method: (§1) The binding of anti-LTBR antibodies to human and cynomolgus LTBR was investigated by Surface Plasmon Resonance (SPR) on Carterra LSA. An EC30M chip was used to capture the test antibodies. Activation with EDC and sNHS occurred in MES pH 5.5 to prepare the chip for amine coupling. Goat anti-human IgG Fc antibody was then captured to the chip via incubation for 10 minutes. Excess conjugation sites were quenched with 1M Ethanolamine pH 8. To measure monovalent binding kinetics, antibodies were printed/spotted onto the chip and allowed to bind to the goat antibody, followed by subsequent washing. After the preparation, the printed chip was exposed to repeated rounds of association and dissociation with increasing analyte concentrations. In this work, recombinant proteins (Human LTBR (Acro) or cyno LTBR His (R&D)) were serially diluted across a range starting at 1500 nM with 3-fold dilutions and 10 points. The curves were fitted to global fit in a 1:1 binding model to obtain KD values. The binding affinity to both species is reported.

[9] = target: T3, cyno LTBR His (R&D), recombinant protein (cynomolgus (Macaca fascicularis), UniProt P36941 31-227 (human entry), limits assumed); experiment: as above
T3 construct: bought protein used as analyte on Carterra LSA
T3 sequence (P36941 other isoform, or with tags, fused parts or gaps limits assumed): as the sequence (P36941 31-227 limits assumed) above, with A2V, A7G, Q24R, I45S, N163D, K181R, L184S, P186S counted along it
Method: as §1

[10] = target: Human FAP (Acro), recombinant protein (human, UniProt Q12884 26-760); experiment: SPR (Carterra LSA) as in Example 3.6, antibody captured, FAP as analyte; * value outside instrument specifications
Method: (§2) Binding of anti-FAP antibodies to human and cynomolgus FAP was investigated by Surface Plasmon Resonance (SPR) on Carterra LSA. An EC30M chip was used to capture the test antibodies. The chip was activated for bioconjugation using EDC and sNHS in MES pH 5.5 to prepare the chip for amine coupling. Goat anti-human IgG Fc antibody was then captured to the chip via incubation for 10 minutes. Excess conjugation sites were quenched with 1M Ethanolamine pH 8. To measure monovalent binding kinetics, antibodies were printed/spotted onto the chip and allowed to bind to the goat antibody, followed by subsequent washing. After the preparation, the printed chip was exposed to repeated rounds of association and dissociation with increasing analyte concentrations. In this work, recombinant proteins (Human FAP (Acro) or cyno FAP His (Acro)) were serially diluted across a range starting at 1500 nM with 3-fold dilutions and 10 points. The curves were fitted to global fit in a 1:1 binding model to obtain KD values. The binding affinity to both human and cynomolgus FAP is reported in.

[11] = target: T4, cyno FAP His (Acro), recombinant protein (cynomolgus (Macaca fascicularis), UniProt Q12884 26-760 (human entry)); experiment: as above
T4 construct: bought protein used as analyte on Carterra LSA
Method: as §2

[12] = target: T5, mouse LTBR on cells (4T1 tumor cell line; primary mouse lung fibroblasts) (mouse, UniProt P50284 31-415); experiment: cell-based or functional assay
T5 sequence (P50284 31-415): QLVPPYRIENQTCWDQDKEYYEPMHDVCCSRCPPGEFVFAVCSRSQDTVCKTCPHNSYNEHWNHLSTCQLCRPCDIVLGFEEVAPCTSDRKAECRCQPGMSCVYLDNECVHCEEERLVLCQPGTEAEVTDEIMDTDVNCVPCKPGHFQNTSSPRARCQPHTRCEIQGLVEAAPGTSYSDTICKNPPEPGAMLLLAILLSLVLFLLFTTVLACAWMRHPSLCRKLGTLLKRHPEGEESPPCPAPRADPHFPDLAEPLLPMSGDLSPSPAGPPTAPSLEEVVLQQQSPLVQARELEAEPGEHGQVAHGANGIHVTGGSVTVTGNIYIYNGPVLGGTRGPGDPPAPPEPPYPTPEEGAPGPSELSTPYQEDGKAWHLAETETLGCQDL

[13] = target: T5, mouse LTBR on cells (4T1 tumor cell …); experiment: cell-based or functional assay; remark: listed apart in the source
[14] = target: T1, human LTBR endogenously expressed on …; experiment: flow cytometry, A549 cells
Method: (§3) In short, 1×10⁶ cells were resuspended in the FACS buffer (1% BSA, 0.1% Sodium Azide in PBS), and 50 μl was added to each well (5×10⁴ cells/well) of a 96-U bottom plate. The cells were washed once and resuspended in 50 μl/well of FACS buffer containing a 1:3, 11-point series dilutions of constructs 4.1-4.6 and clones 4.8-4.9 followed by 1 h incubation at 4° C. […] Next, cells were washed and resuspended in FACS buffer and read on Beckman Coulter CytoFLEX. The data were analysed using FloJo V10 and GraphPad Prism v9. Clone 4.7 was tested for binding to A375 (LTBR positive cell line) and the HEK293-FAP overexpressing cell line, as described in examples 2.4 and 3.5. The EC50 values can be found in.

[15] = target: T2, human FAP expressed on cells …; experiment: flow cytometry, FAP-CHO-K1 cells
Method: as §3

[16] = target: T6, Biotinylated hLTBR-His-Avitag (Acro, cat no LTR-H82E9-25 µg) (human, UniProt P36941 31-227, biotinylated (Avitag)); experiment: BLI (Octet), biotinylated LTBR on SA sensor, antibody as analyte
T6 construct: bought protein loaded on SA Streptavidin biosensors
T6 sequence (P36941 31-227 limits assumed): as the sequence (P36941 31-227 limits assumed) above
Method: Briefly, Biotinylated hLTBR-His-Avitag (Acro, cat no LTR-H82E9-25 μg) was loaded on SA Streptavidin biosensors (Fortebio) in kinetics buffer (ForteBio) followed by a 2-fold dilution series starting at 50 nM of FAP/LTBR bispecific antibodies. Binding kinetics were studied in a 1× Kinetics buffer where the association was allowed for 100 seconds, followed by dissociation for 300 seconds. Data generated were referenced by subtracting a parallel buffer blank, the baseline was aligned with the y-axis, inter-step correlation by alignment against dissociation was performed, and the data were smoothed by a Savitzky-Golay filter in the data analysis software. The processed data were fitted using a 1:1 Langmuir binding model with R\hat{ }2 as a measurement of fitting accuracy. The KD and R\hat{ }2 values can be found in.

[17] = target: cynomologus recombinant LTBR (Octet, Example 4.8) (cynomolgus (Macaca fascicularis), UniProt P36941 31-227 (human entry), limits assumed); experiment: BLI (Octet), cyno LTBR immobilised on ARG sensor, antibody at 25 nM
Chain of cynomologus recombinant LTBR (Octet, Example 4.8) (P36941 other isoform, or with tags, fused parts or gaps limits assumed): as the sequence (P36941 31-227 limits assumed) above, with A2V, A7G, Q24R, I45S, N163D, K181R, L184S, P186S counted along it
Method: A 2-fold series dilution starting at 50 nM of cynomologus recombinant LTBR was immobilised on the surface of ARG biosensors (Fortebio), followed by FAP/LTBR bispecific at 25 nM. Binding kinetics were studied in a 1× Kinetics buffer where the association was allowed for 180 seconds, followed by dissociation for 100 seconds. Sensor tips were regenerated using ethylene glycol. Data generated were referenced by subtracting a parallel buffer blank, the baseline was aligned with the y-axis, inter-step correlation by alignment against dissociation was performed, and the data were smoothed by a Savitzky-Golay filter in the data analysis software. The processed data were fitted using a 1:1 Langmuir binding model with R\hat{ }2 as a measurement of fitting accuracy. The KD values can be found in.

[18] = target: T7, human FAP (Acro, cat no FAP-H82Q6) (human, UniProt Q12884 26-760); experiment: BLI (Octet), antibody captured by anti-Fc, FAP as analyte; * value outside instrument specifications; avid binding to dimeric FAP; value flagged as outside instrument specifications
T7 construct: 'FAP is naturally a dimeric antigen'
Method: Binding to recombinant FAP proteins was investigated by Bio-Layer Interferometry (BLI) using the Octet instrument. Using standard amine coupling chemistry, an anti-Fc antibody was immobilised on the surface of ARG biosensors (Fortebio). The FAP/LTBR bispecific antibodies were loaded on the previously coated surface with anti-Fc capture antibody, followed by a 2-fold series dilution starting at 50 nM of either cyno FAP (Acro, cat no FAP-C82Q5) or human FAP (Acro, cat no FAP-H82Q6). Binding kinetics were studied in a 1× Kinetics buffer where the association was allowed for 200 seconds, followed by dissociation for 400 seconds. Sensor tips were regenerated using 10 mM Glycine pH 2.0. Data generated were referenced by subtracting a parallel buffer blank, the baseline was aligned with the y-axis, inter-step correlation by alignment against dissociation was performed, and the data were smoothed by a Savitzky-Golay filter in the data analysis software. The processed data were fitted using a 1:1 Langmuir binding model with R\hat{ }2 as a measurement of fitting accuracy. The Results are summarised in. Avidity was observed as FAP is naturally a dimeric antigen, and the limited detection by Octet with these molecules has been reached. Species cross-reactivity has been confirmed for all test samples.

T1 sequence (P36941 31-435): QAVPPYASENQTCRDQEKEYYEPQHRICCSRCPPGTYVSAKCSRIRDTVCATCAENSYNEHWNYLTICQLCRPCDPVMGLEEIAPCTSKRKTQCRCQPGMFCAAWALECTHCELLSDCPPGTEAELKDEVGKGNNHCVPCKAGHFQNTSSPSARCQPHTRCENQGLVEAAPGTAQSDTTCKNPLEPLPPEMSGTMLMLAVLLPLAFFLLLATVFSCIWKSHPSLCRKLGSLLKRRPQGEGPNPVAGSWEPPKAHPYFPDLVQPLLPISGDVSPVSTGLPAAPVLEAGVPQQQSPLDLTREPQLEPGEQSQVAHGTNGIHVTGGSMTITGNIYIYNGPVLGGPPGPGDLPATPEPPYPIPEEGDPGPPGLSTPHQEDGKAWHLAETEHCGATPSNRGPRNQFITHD

B1: Clone 4.7 (bispecific antibody, human IgG1, kappa, L234A L235A)
heavy 1: not shown
heavy 2: QVQLVQSGAEVKKPGASVKVSCKASGYTFTGYYMNWVRQAPGQGLEWMGWINPQSGDVNFAQKFQGRVTMTRDTSISTAYMELSRLRSDDTAVYYCARQFRGYSYGYGMDVWGQGTTVTVSSASTKGPSVFPLAPSSKSTSGGTAALGCLVKDYFPEPVTVSWNSGALTSGVHTFPAVLQSSGLYSLSSVVTVPSSSLGTQTYICNVNHKPSNTKVDKKVEPKSCDKTHTCPPCPAPEAAGGPSVFLFPPKPKDTLMISRTPEVTCVVVDVSHEDPEVKFNWYVDGVEVHNAKTKPREEQYNSTYRVVSVLTVLHQDWLNGKEYKCKVSNKALPAPIEKTISKAKGQPREPQVCTLPPSRDELTKNQVSLSCAVKGFYPSDIAVEWESNGQPENNYKTTPPVLDSDGSFFLVSKLTVDKSRWQQGNVFSCSVMHEALHNHYTQKSLSLSPG
light: not shown
notes: FAP:LTBR 2:1 heterodimer of FAP mAb (clone 3.7) with C terminal fused LTBR scFv (clone 2.3), human IgG1 LALA
For B1, the “HepG2 Reporter assay, HepG2:FAP-CHO-K1 Co-culture EC50” value [1] was 0.023 nM, the “CCL19 upregulation, HCC1187:CAF Co-culture EC50” value [2] was 0.073 nM and the “ICAM1 upregulation in CAFs monoculture assay EC50” value [3] was 0.012 nM. For the same binder, the “chemokine (CCL5) induction in RPMI-7951 EC50” value [4] was 0.0096 nM, the “HCC-1187:RPMI7951 (cis-activation) co-culture assay CCL5 read-out EC50” value [5] was 0.01 nM and the EC50 [6] was 6 nM. The EC50 [7] was 0.34 nM, the Kd [8] was 1.8 nM and the Kd [9] was 0.4 nM. The Kd [10] was 0.16 nM and the Kd [11] was 0.15 nM.

B2: Clone 4.14 (antibody, V domains shown)
VH: QVQLKESGPGLVQPSQTLSLTCTVSGFSLTTYSVHWVRQHSGKSLEWMGRMWTDGDTSYNSAFTSRLSISRDTSKSQVFLKMNSLQTEDTGTYYCARGYWYFDFWGPGTMVTVSS
VL: DVQMTQSPSYLAASPGESVSIRCKASKSISNNLAWYQEKPGKANKLLIHSGSTLQSGTPSRFSGSGSGTDFTLTIRSLEFEDFAVYYCQQYNEYPYTFGAGTKLELK
B2 was tested, and the “4T1:CHO-FAP co-culture CCL5 read-out EC50” value [12] was 0.28 nM, the “4T1:CHO-FAP co-culture CCL5 read-out EC50, 4.14 + cross-linking antibody” value [12] was 0.096 nM and the “4T1 monoculture CCL5 read-out EC50” value [12] was 0.47 nM. The “4T1 monoculture CCL5 read-out EC50, 4.14 + cross-linking antibody” value [12] was 0.14 nM, the “ICAM1 induction in PMLF EC50” value [13] was 0.063 nM and the “ICAM1 induction in PMLF EC50, 4.14 + cross-linking antibody” value [13] was 0.021 nM.

B3: Clone 4.1 (bispecific antibody, human IgG1, kappa, L234A L235A)
heavy 1: not shown
heavy 2: QLQLQESGPGLVKPSETLSLTCTVSGGSISSSTYYWGWIRQPPGKGLEWIGSIFYSGNTYYNPSLKSRVTISVDTSKNHFSLKLSSVTAADTAVYYCAREIIEPRPGYFDYWGQGTLVTVSSASTKGPSVFPLAPSSKSTSGGTAALGCLVKDYFPEPVTVSWNSGALTSGVHTFPAVLQSSGLYSLSSVVTVPSSSLGTQTYICNVNHKPSNTKVDKKVEPKSCDKTHTCPPCPAPEAAGGPSVFLFPPKPKDTLMISRTPEVTCVVVDVSHEDPEVKFNWYVDGVEVHNAKTKPREEQYNSTYRVVSVLTVLHQDWLNGKEYKCKVSNKALPAPIEKTISKAKGQPREPQVCTLPPSRDELTKNQVSLSCAVKGFYPSDIAVEWESNGQPENNYKTTPPVLDSDGSFFLVSKLTVDKSRWQQGNVFSCSVMHEALHNHYTQKSLSLSPG
light: not shown
notes: FAP:LTBR 1:1 heterodimer of LTBR VHH (clone 1.6) paired with FAP Fab (clone 3.5), human IgG1 LALA
With B3 the “HepG2 Reporter assay, HepG2:FAP-CHO-K1 Co-culture EC50” value [1] was 0.07 nM, the “CCL19 upregulation, HCC1187:CAF Co-culture EC50” value [2] was 0.055 nM and the “ICAM1 upregulation in CAFs monoculture assay EC50” value [3] was 0.026 nM. For the same binder, the “chemokine (CCL5) induction in RPMI-7951 EC50” value [4] was 0.09 nM, the “HCC-1187:RPMI7951 (cis-activation) co-culture assay CCL5 read-out EC50” value [5] was 0.052 nM and the “HCC-1187:RPMI7951 (trans-activation) co-culture assay, CCL19 Read-out EC50” value [5] was 0.084 nM. For the same binder, the EC50 [14] was 29 nM, the EC50 [15] was 0.28 nM and the Kd [16] was 4 nM. It also gave a Kd [17] of 7.7 nM and a Kd [18] of 0.182 nM.
